For the assay, the target named is Arabidopsis thaliana HAPLESS 2 ectodomain (AtHAP2e; aa 25-494) (Arabidopsis thaliana) (UniProt F4JP36). As to the kind of experiment: crystal structure; AtHAP2e set to crystallize as a monomer; hanging drop, 293 K, 100 mM sodium citrate pH 4.5, 200 mM zinc acetate; space group P6_(3).

The term stoichiometry N denotes a count of units in the complex or per binding partner.

Substance “Arabidopsis thaliana HAPLESS 2 ectodomain (AtHAP2e; aa 25-494) (from UniProt F4JP36 25-494) (domain or fragment)” had a stoichiometry N of 3.

The record behind these values is article PMC6089408.
